{"source": "patent US6835824", "target": "nine-person peanut-specific IgE antibody pool (pooled serum of patients with AD and positive peanut challenge)", "experiment": "IgE ELISA inhibition, crude peanut coated, pooled serum", "data": [{"binder": "Ara h I, 63.5 kD peanut allergen, native, purified from Florunner peanut extract (protein, Arachis hypogaea, UniProt P43238 85-626, looked up, glycoprotein) RSPPGERTRGRQPGDYDDDRRQPRREEGGRWGPAGPREREREEDWRQPREDWRRPSHQQPRKIRPEGREGEQEWGTPGSHVREETSRNNPFYFPSRRFSTRYGNQNGRIRVLQRFDQRSRQFQNLQNHRIVQIEAKPNTLVLPKHADADNILVIQQGQATVTVANGNNRKSFNLDEGHALRIPSGFISYILNRHDNQNLRVAKISMPVNTPGQFEDFFPASSRDQSSYLQGFSRNTLEAAFNAEFNEIRRVLLEENAGGEQEERGQRRWSTRSSENNEGVIVKVSKEHVEELTKHAKSVSKKGSEEEGDITNPINLREGEPDLSNNFGKLFEVKPDKKNPQLQDLDMMLTCVEIKEGALMLPHFNSKAMVIVVVNKGTGNLELVAVRKEQQQRGRREEEEDEDEEEEGSNREVRRYTARLKEGDVFIMPAAHPVAINASSELHLLGFGINAENNHRIFLAGDKDNVIDQIEKQAKDLAFPGSGEQVEKLIKNQKESHFVSARPQSQSQSPSSPEKESPEKEDQEEENQGGKGPLLSILKAFN", "values": [{"measurement": "IC50", "result": 5.5, "unit": "ng/mL"}]}]}
